{
  "source": "patent US20210206859A1",
  "about": "(DRAGONFLY THERAPEUTICS, published 2021)",
  "data": [
    {"molecular_target": "T1, B7-H3 expressed on human cancer cell lines (786-O, BT-474, HCC1954) (human, UniProt Q5ZPR3 29-534)", "T1 construct": "The assay used B7-H3 expressed endogenously on the cell lines; also called CD276; cell expressed B7-H3", "T1 sequence": "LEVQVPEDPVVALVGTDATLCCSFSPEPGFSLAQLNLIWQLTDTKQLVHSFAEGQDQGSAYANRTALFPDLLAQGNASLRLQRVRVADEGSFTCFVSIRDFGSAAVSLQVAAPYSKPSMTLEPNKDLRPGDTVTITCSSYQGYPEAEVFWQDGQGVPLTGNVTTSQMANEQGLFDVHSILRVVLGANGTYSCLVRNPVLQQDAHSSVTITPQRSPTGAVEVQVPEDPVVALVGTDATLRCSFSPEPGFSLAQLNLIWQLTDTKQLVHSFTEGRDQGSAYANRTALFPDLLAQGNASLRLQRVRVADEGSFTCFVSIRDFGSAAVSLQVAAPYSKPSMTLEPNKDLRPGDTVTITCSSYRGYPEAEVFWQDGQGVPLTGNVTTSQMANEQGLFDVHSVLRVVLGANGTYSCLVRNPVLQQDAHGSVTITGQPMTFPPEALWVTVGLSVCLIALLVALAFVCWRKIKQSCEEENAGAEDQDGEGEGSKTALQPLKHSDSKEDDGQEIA", "experiment": "flow cytometry on 786-O, BT-474 and HCC1954 cells, anti-human IgG detection", "description": "Human cancer cell lines expressing B7-H3 were used to assess tumor antigen binding of TriNKETs derived from B7-H3 targeting clones. Human breast cancer cell lines BT-474 and HCC1954 and renal cancer cell line 786-O were used to assess binding of TriNKETs to cell expressed B7-H3. Varying concentrations of either TriNKET or monoclonal antibody were allowed to bind cells for 20 minutes on ice, after which cells were washed and the amount of bound TriNKET/monoclonal antibody was measured using fluorophore conjugated anti-human IgG secondary antibody. Cells were then analyzed by flow cytometry and binding MFI to cell expressed B7-H3 was plotted against varying concentration.", "values": [
      {"binder": "A49MI-F3′-TriNKET-huAb13v1 (bispecific antibody, human IgG1, kappa, also called TriNKET bearing 13v1 B7-H3 targeting domain; B7-H3 TriNKET) scFv: DIQMTQSPSSLSASVGDRVTITCKASQNVGFNVAWYQQKPGKSPKALIYSASYRYSGVPSRFSGSGSGTDFTLTISSLQPEDFAEYFCQQYNWYPFTFGCGTKLEIKGGGGSGGGGSGGGGSGGGGSEVQLQESGPGLVKPSETLSLTCAVTGYSITSGYSWHWIRQFPGNCLEWMGYIHSSGSTNYNPSLKSRISISRDTSKNQFFLKLSSVTAADTAVYYCAGYDDYFEYWGQGTTVTVSSASDKTHTCPPCPAPELLGGPSVFLFPPKPKDTLMISRTPEVTCVVVDVSHEDPEVKFNWYVDGVEVHNAKTKPREEQYNSTYRVVSVLTVLHQDWLNGKEYKCKVSNKALPAPIEKTISKAKGQPREPRVYTLPPCRDELTKNQVSLTCLVKGFYPSDIAVEWESNGQPENNYKTTPPVLVSDGSFTLYSKLTVDKSRWQQGNVFSCSVMHEALHNHYTQKSLSLSPG heavy: EVQLVESGGGLVKPGGSLRLSCAASGFTFSSYSMNWVRQAPGKGLEWVSSISSSSSYIYYADSVKGRFTISRDNAKNSLYLQMNSLRAEDTAVYYCARGAPIGAAAGWFDPWGQGTLVTVSSASTKGPSVFPLAPSSKSTSGGTAALGCLVKDYFPEPVTVSWNSGALTSGVHTFPAVLQSSGLYSLSSVVTVPSSSLGTQTYICNVNHKPSNTKVDKKVEPKSCDKTHTCPPCPAPELLGGPSVFLFPPKPKDTLMISRTPEVTCVVVDVSHEDPEVKFNWYVDGVEVHNAKTKPREEQYNSTYRVVSVLTVLHQDWLNGKEYKCKVSNKALPAPIEKTISKAKGQPREPQVCTLPPSRDELTENQVSLTCLVKGFYPSDIAVEWESNGQPENNYKTTPPVLDSDGSFFLYSWLTVDKSRWQQGNVFSCSVMHEALHNHYTQKSLSLSPG light: DIQMTQSPSSVSASVGDRVTITCRASQGISSWLAWYQQKPGKAPKLLIYAASSLQSGVPSRFSGSGSGTDFTLTISSLQPEDFATYYCQQGVSFPRTFGGGTKVEIKRTVAAPSVFIFPPSDEQLKSGTASVVCLLNNFYPREAKVQWKVDNALQSGNSQESVTEQDSKDSTYSLSSTLTLSKADYEKHKVYACEVTHQGLSSPVTKSFNRGEC", "binding result": "binds"},
      {"binder": "A49MI-F3′-TriNKET-Enoblituzumab (bispecific antibody, human IgG1, kappa, also called TriNKET bearing Enoblituzumab B7-H3 targeting domain; B7-H3 TriNKET) scFv: DIQLTQSPSFLSASVGDRVTITCKASQNVDTNVAWYQQKPGKAPKALIYSASYRYSGVPSRFSGSGSGTDFTLTISSLQPEDFATYYCQQYNNYPFTFGCGTKLEIKGGGGSGGGGSGGGGSGGGGSEVQLVESGGGLVQPGGSLRLSCAASGFTFSSFGMHWVRQAPGKCLEWVAYISSDSSAIYYADTVKGRFTISRDNAKNSLYLQMNSLRDEDTAVYYCGRGRENIYYGSRLDYWGQGTTVTVSSASDKTHTCPPCPAPELLGGPSVFLFPPKPKDTLMISRTPEVTCVVVDVSHEDPEVKFNWYVDGVEVHNAKTKPREEQYNSTYRVVSVLTVLHQDWLNGKEYKCKVSNKALPAPIEKTISKAKGQPREPRVYTLPPCRDELTKNQVSLTCLVKGFYPSDIAVEWESNGQPENNYKTTPPVLVSDGSFTLYSKLTVDKSRWQQGNVFSCSVMHEALHNHYTQKSLSLSPG heavy: EVQLVESGGGLVKPGGSLRLSCAASGFTFSSYSMNWVRQAPGKGLEWVSSISSSSSYIYYADSVKGRFTISRDNAKNSLYLQMNSLRAEDTAVYYCARGAPIGAAAGWFDPWGQGTLVTVSSASTKGPSVFPLAPSSKSTSGGTAALGCLVKDYFPEPVTVSWNSGALTSGVHTFPAVLQSSGLYSLSSVVTVPSSSLGTQTYICNVNHKPSNTKVDKKVEPKSCDKTHTCPPCPAPELLGGPSVFLFPPKPKDTLMISRTPEVTCVVVDVSHEDPEVKFNWYVDGVEVHNAKTKPREEQYNSTYRVVSVLTVLHQDWLNGKEYKCKVSNKALPAPIEKTISKAKGQPREPQVCTLPPSRDELTENQVSLTCLVKGFYPSDIAVEWESNGQPENNYKTTPPVLDSDGSFFLYSWLTVDKSRWQQGNVFSCSVMHEALHNHYTQKSLSLSPG light: DIQMTQSPSSVSASVGDRVTITCRASQGISSWLAWYQQKPGKAPKLLIYAASSLQSGVPSRFSGSGSGTDFTLTISSLQPEDFATYYCQQGVSFPRTFGGGTKVEIKRTVAAPSVFIFPPSDEQLKSGTASVVCLLNNFYPREAKVQWKVDNALQSGNSQESVTEQDSKDSTYSLSSTLTLSKADYEKHKVYACEVTHQGLSSPVTKSFNRGEC", "binding result": "binds"},
      {"binder": "A49MI-F3′-TriNKET-huM30 (bispecific antibody, human IgG1, kappa, also called TriNKET bearing M30 B7-H3 targeting domain; B7-H3 TriNKET) scFv: EIVLTQSPATLSLSPGERATLSCRASSRLIYMHWYQQKPGQAPRPLIYATSNLASGIPARFSGSGSGTDFTLTISSLEPEDFAVYYCQQWNSNPPTFGCGTKVEIKGGGGSGGGGSGGGGSGGGGSQVQLVQSGAEVKKPGSSVKVSCKASGYTFTNYVMHWVRQAPGQCLEWMGYINPYNDDVKYNEKFKGRVTITADESTSTAYMELSSLRSEDTAVYYCARWGYYGSPLYYFDYWGQGTLVTVSSASDKTHTCPPCPAPELLGGPSVFLFPPKPKDTLMISRTPEVTCVVVDVSHEDPEVKFNWYVDGVEVHNAKTKPREEQYNSTYRVVSVLTVLHQDWLNGKEYKCKVSNKALPAPIEKTISKAKGQPREPRVYTLPPCRDELTKNQVSLTCLVKGFYPSDIAVEWESNGQPENNYKTTPPVLVSDGSFTLYSKLTVDKSRWQQGNVFSCSVMHEALHNHYTQKSLSLSPG heavy: EVQLVESGGGLVKPGGSLRLSCAASGFTFSSYSMNWVRQAPGKGLEWVSSISSSSSYIYYADSVKGRFTISRDNAKNSLYLQMNSLRAEDTAVYYCARGAPIGAAAGWFDPWGQGTLVTVSSASTKGPSVFPLAPSSKSTSGGTAALGCLVKDYFPEPVTVSWNSGALTSGVHTFPAVLQSSGLYSLSSVVTVPSSSLGTQTYICNVNHKPSNTKVDKKVEPKSCDKTHTCPPCPAPELLGGPSVFLFPPKPKDTLMISRTPEVTCVVVDVSHEDPEVKFNWYVDGVEVHNAKTKPREEQYNSTYRVVSVLTVLHQDWLNGKEYKCKVSNKALPAPIEKTISKAKGQPREPQVCTLPPSRDELTENQVSLTCLVKGFYPSDIAVEWESNGQPENNYKTTPPVLDSDGSFFLYSWLTVDKSRWQQGNVFSCSVMHEALHNHYTQKSLSLSPG light: DIQMTQSPSSVSASVGDRVTITCRASQGISSWLAWYQQKPGKAPKLLIYAASSLQSGVPSRFSGSGSGTDFTLTISSLQPEDFATYYCQQGVSFPRTFGGGTKVEIKRTVAAPSVFIFPPSDEQLKSGTASVVCLLNNFYPREAKVQWKVDNALQSGNSQESVTEQDSKDSTYSLSSTLTLSKADYEKHKVYACEVTHQGLSSPVTKSFNRGEC", "binding result": "binds"},
      {"binder": "Enoblituzumab (MacroGenics, Inc.) parental monoclonal antibody (antibody, V domains shown, also called parental mAb; B7-H3 parental monoclonal antibody) VH: EVQLVESGGGLVQPGGSLRLSCAASGFTFSSFGMHWVRQAPGKGLEWVAYISSDSSAIYYADTVKGRFTISRDNAKNSLYLQMNSLRDEDTAVYYCGRGRENIYYGSRLDYWGQGTTVTVSS VL: DIQLTQSPSFLSASVGDRVTITCKASQNVDTNVAWYQQKPGKAPKALIYSASYRYSGVPSRFSGSGSGTDFTLTISSLQPEDFATYYCQQYNNYPFTFGQGTKLEIKR", "binding result": "binds"},
      {"binder": "huAb13v1 (AbbVie Inc.) parental monoclonal antibody (antibody, V domains shown, also called parental mAb; B7-H3 parental monoclonal antibody) VH: EVQLQESGPGLVKPSETLSLTCAVTGYSITSGYSWHWIRQFPGNGLEWMGYIHSSGSTNYNPSLKSRISISRDTSKNQFFLKLSSVTAADTAVYYCAGYDDYFEYWGQGTTVTVSS VL: DIQMTQSPSSLSASVGDRVTITCKASQNVGFNVAWYQQKPGKSPKALIYSASYRYSGVPSRFSGSGSGTDFTLTISSLQPEDFAEYFCQQYNWYPFTFGQGTKLEIK", "binding result": "binds"},
      {"binder": "huM30 (Daiichi Sankyo, Inc.) parental monoclonal antibody (antibody, V domains shown, also called parental mAb; B7-H3 parental monoclonal antibody) VH: QVQLVQSGAEVKKPGSSVKVSCKASGYTFTNYVMHWVRQAPGQGLEWMGYINPYNDDVKYNEKFKGRVTITADESTSTAYMELSSLRSEDTAVYYCARWGYYGSPLYYFDYWGQGTLVTVSS VL: EIVLTQSPATLSLSPGERATLSCRASSRLIYMHWYQQKPGQAPRPLIYATSNLASGIPARFSGSGSGTDFTLTISSLEPEDFAVYYCQQWNSNPPTFGQGTKVEIK", "binding result": "binds"}
    ]}
  ]
}
